Laboratory results from publication PMC4161475, “EhCoactosin Stabilizes Actin Filaments in the Protist Parasite Entamoeba histolytica” (PLoS Pathogens, 2014).

Target: G-actin (rabbit skeletal muscle actin, monomeric) (rabbit, UniProt P68135 1-377)
Assay: ELISA; solid-phase assay: wells coated with 5 µM G-actin in PBS, 5 µM protein added, detected with anti-EhCoactosin antibody; in the presence of Ca2+ (2 mM) or EGTA (5 mM)
Details: both partners purified

B1: EhCoactosin, full-length wild type (natural protein)
chain: MSGFDLSEVAGPVAEVIDDKNEEVEFVVFGVQTQPNKLVVDAKGKGGLEEVKAALKEDALQFAYYRTISGDEESKRVKFVFISWAGEGIKKPKLRAVMSILKGDVKNVINNFHIELHATSLDDLVEDEIAAKIKKAGGADYSFNTTSN
notes: Cloned in pET28b between NcoI and XhoI; also called EhCoWT; WT EhCoactosin; source: E. coli BL21 (DE3), purified (Nickel-NTA, Superdex 75 gel filtration)
fold of the level of binding of EhCaBP1: 2 fold

B2: EhCoactosin with the N-terminal seven amino acid residues deleted (domain or fragment)
chain: EVAGPVAEVIDDKNEEVEFVVFGVQTQPNKLVVDAKGKGGLEEVKAALKEDALQFAYYRTISGDEESKRVKFVFISWAGEGIKKPKLRAVMSILKGDVKNVINNFHIELHATSLDDLVEDEIAAKIKKAGGADYSFNTTSN
notes: Coactosin of Entamoeba histolytica, NCBI XP_650926.1, 7 residues deleted from the N terminus; The tag is told for the EhCoactosin gene in pET28b; also called EhCoΔN; N-terminal truncation mutant; source: E. coli BL21 (DE3), purified (Nickel-NTA, Superdex 75 gel filtration)
fold increase in binding against WT: 2 fold
